Where two headings read alike, the source gives them in different places.
What was measured:
[1] = target: T1, P-TEFb/AFF4/Tat(1-57) core super elongation complex (CDK9/CycT1/AFF4/Tat) (Homo sapiens (CDK9, CycT1, AFF4)?; HIV-1 (Tat)) (UniProt P50750+O60563+Q9UHB7+P04608); test: EMSA; conditions: 250x yeast tRNA
[2] = target: T1, P-TEFb/AFF4/Tat(1-57) core super elongation complex (CDK9/CycT1/AFF4/Tat) (Homo sapiens (CDK9, CycT1, AFF4)?; HIV-1 (Tat)); conditions: CITED mutational data (apparently), cited from earlier work

Sequence	Kd ([1]; 0.5 nM RNA, 0-90 nM complex, 6% native gel) [pM]	Kd ([1]; TAR preincubated with 10 nM Palbociclib) [pM]	Kd ([2]; wild-type UGGG loop) [pM]	Kd ([2]; [15-18], CAAA loop) [pM]
GGCAGAUCUGAGCCUGGGAGCUCUCUGCC [HIV-1 TAR]	340	35600	230	–
GGCAGAUCUGAGCCCAAAAGCUCUCUGCC [HIV-1 TAR loop mutant UGGG to CAAA]	–	–	–	> 10000

From US20230132667
